These are literature values, as cited in article PMC10361719.

The term Kd denotes the equilibrium constant for the complex coming apart.

This data set concerns the target Gag (Human immunodeficiency virus 1) (UniProt O93182).

Gag, sequence (O93182 2-500): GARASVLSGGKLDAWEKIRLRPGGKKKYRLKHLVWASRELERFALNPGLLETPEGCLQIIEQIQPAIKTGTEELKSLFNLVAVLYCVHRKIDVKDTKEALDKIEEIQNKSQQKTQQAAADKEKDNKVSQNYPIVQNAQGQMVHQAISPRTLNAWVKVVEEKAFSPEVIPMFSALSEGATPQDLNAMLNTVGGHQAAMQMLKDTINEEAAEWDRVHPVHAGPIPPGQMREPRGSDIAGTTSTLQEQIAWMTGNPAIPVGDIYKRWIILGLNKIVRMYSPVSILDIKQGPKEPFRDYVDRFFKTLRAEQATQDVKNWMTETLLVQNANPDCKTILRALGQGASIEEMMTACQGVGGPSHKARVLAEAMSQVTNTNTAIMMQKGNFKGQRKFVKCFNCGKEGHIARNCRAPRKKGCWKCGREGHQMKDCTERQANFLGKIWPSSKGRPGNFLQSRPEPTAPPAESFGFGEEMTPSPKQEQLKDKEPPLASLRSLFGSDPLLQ

Gag (from UniProt O93182): the Kd was 5.5 µM.
